# Data as given in patent US20070020258A1.
# Target: membrane IgE on U266 B1 cells (human) (UniProt P01854)
# Test: FACS, U266 B1 cells
row,Binder,EC50
1,"MAE15 (antibody, V domains shown) VH: DVQHQESEPDLVKPSQSLSLTCTVTGYSITSGYNRHWIRQFPGNKLEWMGYIHYSGSTNYNPSLKRRISITRDTSKNQFFLQLNSVTTEDTATYYCARGSIYYYGSRYRYFDVWGAGTTVTVSS VL: DIQLTQSPASLAVSLGQRATISCKASQSVDYDGDSYMNWYQQKPGQPPKLLIYAASNLESGIPARFSGSGSGTDFTLNIHPVEEEDAATYYCQQSNEDPFTFGAGT",6 µg/mL
2,"MAE13 (antibody, V domains shown) VH: DVQLQESGPGLVKPSQSLSLTCTVTGYTITSDNAWNWIRQFPGNKLEWMGYINHSGTTSYNPSLKSRISITRDTSKNQFFLQLNSVTTEDTATYYCAWVVAYAMDYWGQGTSVTVSS VL: DIVMTQSQKFMSTSVGDRVSVTCKASQNVSSNVAWYQQKPGQSPKALIYSASYRYSGVPDRFTGSGSGTDFTLTISNVQSEDLAEYFCQQYYTYPLYTFGGGTKLEIKR",1 µg/mL
3,"MAE11 (antibody, V domains shown) VH: DVQLQESGPGLVKPSQSLSLACSVTGYSITSGYSWNWIRQFPGNKLEWMGSITYDGSSNYNPSLKNRISVTRDTSQNQFFLKLNSATAEDTATYYCARGSHYFGHWHFAVWGAGTTVTVSS VL: DIVLTQSPASLAVSLGQRATISCKASQSVDYDGDSYMNWYQQKPGQPPILLIYAASYLGSEIPARFSGSGSGTDFTLNIHPVEEEDAATFYCQQSHEDPYTFGAGTKLEIK",0.15 µg/mL
